# Results published in patent US8410045B2, “Camptothecin-peptide conjugates and pharmaceutical compositions containing the same” (Drais Pharmaceuticals, Inc., priority 2006, dated 2013).
# Where two headings read alike, the source gives them in different places. Where a SMILES comes first, the peptide text is derived from it. Where no end group is shown, it is not given here. Side-chain parts run from the residue outwards. [ ]: non-standard residue; d: D form. The star is where a group is joined. ξ: configuration not given here. X9 = CCc1c2c(nc3ccc(OC(=O)[C@H]4CC[C@H](CNC(=O)CCOCCOCCOCCOCCNC(=O)CCN5C(=O)CC(*)C5=O)CC4)cc13)-c1cc3c(c(=O)n1C2)COC(=O)[C@]3(O)CC; X6 = CCc1c2c(nc3ccc(OC(=O)[C@H]4CC[C@H](CNC(=O)C5CCC(CN6C(=O)CC(*)C6=O)CC5)CC4)cc13)-c1cc3c(c(=O)n1C2)COC(=O)[C@]3(O)CC; X7 = CCc1c2c(nc3ccc(OC(=O)CCCCCCCCCCN4C(=O)CC(*)C4=O)cc13)-c1cc3c(c(=O)n1C2)COC(=O)[C@]3(O)CC; X5 = CCc1c2c(nc3ccc(OC(=O)CCN4C(=O)CC(*)C4=O)cc13)-c1cc3c(c(=O)n1C2)COC(=O)[C@]3(O)CC; X8 = CC[C@@]1(O)C(=O)OCc2c1cc1n(c2=O)Cc2cc3cc(OC(=O)CCN4C(=O)CC(*)C4=O)ccc3nc2-1; SN38 = active drug (irinotecan metabolite) conjugated via the linker; MIC = not defined here; ξC = NC(CS)C(=O)O
# How the values were obtained:
# [1] = Stability of conjugates in citrated plasma at 37° C. (half life time, HPLC fluorescence); type: in vitro ADME; details: dog, read-out: Dog Plasma Half life time
# Procedure: (§1) The stability of the conjugates was tested in citrated plasma (10% (v/v) sodium citrate buffer, 0.106M) from different species (see Table 1 below). The conjugates at 2.55 μM were incubated at 37° C. in plasma. Samples were analysed using the HPLC fluorescence method described below (see chromatographic equipment and conditions) following TFA/acetonitrile extraction and the amount of free camptothecin, analogs or derivatives thereof (e.g. SN38) released by the conjugates was measured.
# (§2) Chromatographic equipment and conditions: 150 μL of each sample were placed in 1.5 mL micro-centrifuge tubes. 450 μL of 5% (v/v) TFA in H2O was added to each tube and the mixture was vortexed for 5 seconds. Samples were then centrifuged at 16000 g, 3 minutes at +4° C. 100 μL of supernatant were placed in 1.5 mL micro-centrifuge tubes. Methanol (100 μL) was then immediately added and vortexed for 5 seconds. Samples were then centrifuged at 16000 g, 3 minutes at room temperature. 150 μL of supernatant were recovered for HPLC analysis. Conjugates, metabolites and camptothecin derivative (i.e. SN38) were separated by high-performance liquid chromatography (HPLC; Agilent 1100 series equipped with a fluorescence detector) using a 4.6×100 mm ([…] particle size) Luna C18(2) column (Phenomenex ref. 00D-4251-E0, Le Pecq, France). The aqueous component of the mobile phase (A) was 0.1% (v/v) TFA in water. The organic modifier (B) was acetonitrile containing 0.1% (v/v) TFA. For the conjugate and its metabolites an elution gradient increasing linearly the proportion of B from 15 to 37% in 2 min, from 37 to 47% in 6 min, followed by 2 min at 90% was applied with a constant flow rate of 1.2 mL/min. The proportion of B was then returned to the initial condition for 3.0 min.
# (§3) The half life time of conjugate corresponds to the time necessary to have 50% by mole of free camptothecin, analogs or derivatives thereof released by the conjugates of the invention. In human plasma, the half life time of conjugate DPV1047-linker #1-SN38 (less than 5 mins) was shorter than that of conjugate DPV1047-linker #2-SN38 (6-7 mins), which, in turn, was shorter than that of conjugate DPV1047-linker #3-SN38 (12 mins).
# (§4) As in Example II, the stability of these conjugates was tested in either human or dog plasma. Following incubation at 37° C., samples were analyzed after a TFA acetonitrile extraction by the HPLC fluorescence method described in Example II. The in vitro cytotoxicity (IC50) of these compounds was also evaluated.
# [2] = as above; type: in vitro ADME, human; details: for half-life: human, plasma
# Procedure: as §1, §2, §3, §4
# [3] = test system: HCT 116 human colorectal carcinoma tumor
# [4] = Table 10, SN38 conjugates, read-out: Human Plasma Half life time
# [5] = Table 14, 10-Hydroxycamptothecin conjugates
# [6] = Table 14, 10-Hydroxycamptothecin conjugates, read-out: Human Plasma Half life time
# [7] = DPV1047-linker-SN38, 2.55 μM, citrated plasma
# [8] = DPV1047-linker-SN38, 2.55 μM, citrated plasma, read-out: Half life time, Human plasma
Compound,"half-life ([1]; Table 10, SN38 conjugates)","half-life [2, 4]","half-life [2, 8]",further results
CCc1c2c(nc3ccc(OC(=O)[C@H]4CC[C@H](CNC(=O)C5CCC(CN6C(=O)CC(SC[C@H](NC(=O)[C@@H]7CCCN7C(=O)[C@H](CC(=O)O)NC(=O)[C@H](CCCNC(=N)N)NC(=O)[C@H](CCCCN)NC(=O)[C@H](CCCCN)NC(=O)CNC(=O)[C@H](CC(C)C)NC(=O)[C@H](CCCCN)NC(=O)CNC(=O)[C@H](CCCCN)NC(=O)[C@H](CCCCN)NC(=O)[C@H](CCCCN)NC(=O)[C@H](CCCNC(=N)N)NC(=O)[C@H](CCCCN)NC(=O)CN)C(=O)O)C6=O)CC5)CC4)cc13)-c1cc3c(c(=O)n1C2)COC(=O)[C@]3(O)CC (stereo partly drawn) [DPV7-linker #5-SN38] (H-GKRKKKGKLGKKRDPC(X6)-OH; N-terminus and C-terminus assumed),112 min,162 min,,
CCc1c2c(nc3ccc(OC(=O)[C@H]4CC[C@H](CNC(=O)C5CCC(CN6C(=O)CC(SCC(N)C(=O)N[C@H](CCCCN)C(=O)N[C@H](CCCNC(=N)N)C(=O)NCC(=O)N[C@H](CC(C)C)C(=O)N[C@H](CCCCN)C(=O)N[C@H](CC(C)C)C(=O)N[C@H](CCCNC(=N)N)C(=O)N[C@H](Cc7c[nH]cn7)C(=O)O)C6=O)CC5)CC4)cc13)-c1cc3c(c(=O)n1C2)COC(=O)[C@]3(O)CC (stereo partly drawn) [DPV51(D)-linker #5-SN38] (H-[ξC](X6)[dK][dR]G[dL][dK][dL][dR][dH]-OH; N-terminus and C-terminus assumed),,,,"half-life ([1]; Table 12, CPP-linker #5-SN38 conjugates incl. D conformation): 175 min; half-life ([2]; Table 12, CPP-linker #5-SN38 conjugates incl. D conformation, read-out: Human Plasma Half life time): 267 min"
CC[C@@]1(O)C(=O)OCc2c1cc1n(c2=O)Cc2cc3cc(OC(=O)CCN4C(=O)CC(SC[C@H](N)C(=O)N[C@H](C(=O)N[C@@H](CCCCN)C(=O)N[C@@H](CCCNC(=N)N)C(=O)NCC(=O)N[C@@H](CC(C)C)C(=O)N[C@@H](CCCCN)C(=O)N[C@@H](CC(C)C)C(=O)N[C@@H](CCCNC(=N)N)C(=O)N[C@@H](Cc5c[nH]cn5)C(=O)N[C@H](C(=O)N[C@@H](CCCNC(=N)N)C(=O)N5CCC[C@H]5C(=O)N[C@@H](CCCNC(=N)N)C(=O)N[C@H](C(=O)N[C@H](C(=O)N[C@@H](CCCNC(=N)N)C(=O)N[C@@H](CCSC)C(=O)N[C@@H](CC(=O)O)C(=O)N[C@H](C(=O)O)C(C)C)[C@@H](C)O)C(C)C)C(C)C)C(C)C)C4=O)ccc3nc2-1 (stereo partly drawn) [DPV1047-linker #1-10 Hydroxycamptothecin] (H-C(X8)VKRGLKLRHVRPRVTRMDV-OH),,,,"half-life [1, 5]: 3 min; half-life [2, 6]: < 3 min"
CCc1c2c(nc3ccc(OC(=O)CCN4C(=O)CC(SC[C@H](N)C(=O)N[C@H](C(=O)N[C@@H](CCCCN)C(=O)N[C@@H](CCCNC(=N)N)C(=O)NCC(=O)N[C@@H](CC(C)C)C(=O)N[C@@H](CCCCN)C(=O)N[C@@H](CC(C)C)C(=O)N[C@@H](CCCNC(=N)N)C(=O)N[C@@H](Cc5c[nH]cn5)C(=O)N[C@H](C(=O)N[C@@H](CCCNC(=N)N)C(=O)N5CCC[C@H]5C(=O)N[C@@H](CCCNC(=N)N)C(=O)N[C@H](C(=O)N[C@H](C(=O)N[C@@H](CCCNC(=N)N)C(=O)N[C@@H](CCSC)C(=O)N[C@@H](CC(=O)O)C(=O)N[C@H](C(=O)O)C(C)C)[C@@H](C)O)C(C)C)C(C)C)C(C)C)C4=O)cc13)-c1cc3c(c(=O)n1C2)COC(=O)[C@]3(O)CC (stereo partly drawn) [DPV1047-linker #1-SN38] (H-C(X5)VKRGLKLRHVRPRVTRMDV-OH),11.3 min,< 3 min,< 5 min,"Half life time, Human plasma [2, 7]: <5 min"
CCc1c2c(nc3ccc(OC(=O)CCCCCCCCCCN4C(=O)CC(SC[C@H](N)C(=O)N[C@H](C(=O)N[C@@H](CCCCN)C(=O)N[C@@H](CCCNC(=N)N)C(=O)NCC(=O)N[C@@H](CC(C)C)C(=O)N[C@@H](CCCCN)C(=O)N[C@@H](CC(C)C)C(=O)N[C@@H](CCCNC(=N)N)C(=O)N[C@@H](Cc5c[nH]cn5)C(=O)N[C@H](C(=O)N[C@@H](CCCNC(=N)N)C(=O)N5CCC[C@H]5C(=O)N[C@@H](CCCNC(=N)N)C(=O)N[C@H](C(=O)N[C@H](C(=O)N[C@@H](CCCNC(=N)N)C(=O)N[C@@H](CCSC)C(=O)N[C@@H](CC(=O)O)C(=O)N[C@H](C(=O)O)C(C)C)[C@@H](C)O)C(C)C)C(C)C)C(C)C)C4=O)cc13)-c1cc3c(c(=O)n1C2)COC(=O)[C@]3(O)CC (stereo partly drawn) [DPV1047-linker #3-SN38] (H-C(X7)VKRGLKLRHVRPRVTRMDV-OH),,,12 min,"Half life time, Human plasma [2, 7]: 8 to 9 min"
CCc1c2c(nc3ccc(OC(=O)[C@H]4CC[C@H](CNC(=O)CCOCCOCCOCCOCCNC(=O)CCN5C(=O)CC(SC[C@H](N)C(=O)N[C@H](C(=O)N[C@@H](CCCCN)C(=O)N[C@@H](CCCNC(=N)N)C(=O)NCC(=O)N[C@@H](CC(C)C)C(=O)N[C@@H](CCCCN)C(=O)N[C@@H](CC(C)C)C(=O)N[C@@H](CCCNC(=N)N)C(=O)N[C@@H](Cc6c[nH]cn6)C(=O)N[C@H](C(=O)N[C@@H](CCCNC(=N)N)C(=O)N6CCC[C@H]6C(=O)N[C@@H](CCCNC(=N)N)C(=O)N[C@H](C(=O)N[C@H](C(=O)N[C@@H](CCCNC(=N)N)C(=O)N[C@@H](CCSC)C(=O)N[C@@H](CC(=O)O)C(=O)N[C@H](C(=O)O)C(C)C)[C@@H](C)O)C(C)C)C(C)C)C(C)C)C5=O)CC4)cc13)-c1cc3c(c(=O)n1C2)COC(=O)[C@]3(O)CC (stereo partly drawn) [DPV1047-linker #6-SN38] (H-C(X9)VKRGLKLRHVRPRVTRMDV-OH; N-terminus and C-terminus assumed),,,30 min,
CCc1c2c(nc3ccc(OC(=O)CCN4C(=O)CC(SC[C@H](N)C(=O)N[C@@H](CCCNC(=N)N)C(=O)N[C@@H](CCC(N)=O)C(=O)N[C@H](C(=O)N[C@@H](CCCCN)C(=O)N[C@H](C(=O)N[C@@H](Cc5c[nH]c6ccccc56)C(=O)N[C@@H](Cc5ccccc5)C(=O)N[C@@H](CCC(N)=O)C(=O)N[C@@H](CC(N)=O)C(=O)N[C@@H](CCCNC(=N)N)C(=O)N[C@@H](CCCNC(=N)N)C(=O)N[C@@H](CCSC)C(=O)N[C@@H](CCCCN)C(=O)N[C@@H](Cc5c[nH]c6ccccc56)C(=O)N[C@@H](CCCCN)C(=O)N[C@@H](CCCCN)C(=O)O)[C@@H](C)CC)[C@@H](C)CC)C4=O)cc13)-c1cc3c(c(=O)n1C2)COC(=O)[C@]3(O)CC (stereo partly drawn) [Penetratin-linker #1-SN38],16.5 min,< 3 min,,
CC[C@@]1(O)C(=O)OCc2c1cc1n(c2=O)Cc2cc3cc(OC(=O)CCCCCNC(=O)C4CCC(CN5C(=O)CC(SC[C@H](NC(=O)[C@H](CCC(N)=O)NC(=O)[C@@H]6CCCN6C(=O)[C@@H]6CCCN6C(=O)[C@H](CCCNC(=N)N)NC(=O)[C@H](CCCNC(=N)N)NC(=O)[C@H](CCCNC(=N)N)NC(=O)[C@H](CCC(N)=O)NC(=O)[C@H](CCCNC(=N)N)NC(=O)[C@H](CCCNC(=N)N)NC(=O)[C@H](CCCCN)NC(=O)[C@H](CCCCN)NC(=O)[C@H](CCCNC(=N)N)NC(=O)CN)C(=O)O)C5=O)CC4)ccc3nc2-1 (stereo partly drawn) [Tat-linker #4-10 Hydroxycamptothecin],,,,"half-life [1, 5]: 20 min; half-life [2, 6]: 7.3 min"
CCc1c2c(nc3ccc(OC(=O)[C@H]4CC[C@H](CNC(=O)C5CCC(CN6C(=O)CC(SC[C@H](NC(=O)[C@H](CCC(N)=O)NC(=O)[C@@H]7CCCN7C(=O)[C@@H]7CCCN7C(=O)[C@H](CCCNC(=N)N)NC(=O)[C@H](CCCNC(=N)N)NC(=O)[C@H](CCCNC(=N)N)NC(=O)[C@H](CCC(N)=O)NC(=O)[C@H](CCCNC(=N)N)NC(=O)[C@H](CCCNC(=N)N)NC(=O)[C@H](CCCCN)NC(=O)[C@H](CCCCN)NC(=O)[C@H](CCCNC(=N)N)NC(=O)CN)C(=O)O)C6=O)CC5)CC4)cc13)-c1cc3c(c(=O)n1C2)COC(=O)[C@]3(O)CC (stereo partly drawn) [Tat-linker #5-SN38],122 min,335 min,,
PolyE(16)-MIC-SN38: non cell-penetrating PolyE(16) peptide coupled via MIC linker to SN38 (EEEEEEEEEEEEEEEEC([MIC-SN38]); not fully specified; reading uncertain; also: SN38 attached through MIC linker at Cys) [reference compound],,,,"activity in the HCT 116 model ([3]; 40 μmol/kg, Q4D×3): not active; TGI (100-T/C %) ([3]; Table 5, Q4Dx3, DPV1047-BCH-SN38 30, PolyE(16)-MIC-SN38 40, irinotecan 48 μmol/kg): 30%"
